Test results published in US10413588B2, “Probiotic function of human intelectin” (Wisconsin Alumni Research Foundation, priority 2015, dated 2019).
Several values for one entry are separate records, joined by “and”; a condition that tells them apart may be missing. Equal entries are not always repeated.

B1: Strep-mIntL-1: purified Strep-tagged mouse intelectin-1 (protein, UniProt O88310 19-298, looked up)
Intelectin-1a: AAEENLDTNRWGNSFFSSLPRSCKEIKQEHTKAQDGLYFLRTKNGVIYQTFCDMTTAGGGWTLVASVHENNMRGKCTVGDRWSSQQGNRADYPEGDGNWANYNTFGSAEAATSDDYKNPGYFDIQAENLGIWHVPNKSPLHNWRKSSLLRYRTFTGFLQHLGHNLFGLYKKYPVKYGEGKCWTDNGPALPVVYDFGDARKTASYYSPSGQREFTAGYVQFRVFNNERAASALCAGVRVTGCNTEHHCIGGGGFFPEGNPVQCGDFASFDWDGYGTHNGYS
modifications: Strep-tag
B2: hIntL-2: human intelectin-2, accession no. Q8WWU7, highly homologous to hIntL-1 (protein, listed as Homo sapiens)
chain: MLSMLRTMTRLCFLLFFSVATSGCSAAAASSLEMLSREFETCAFSFSSLPRSCKEIKERCHSAGDGLYFLRTKNGVVYQTFCDMTSGGGGWTLVASVHENDMRGKCTVGDRWSSQQGNKADYPEGDGNWANYNTFGSAEAATSDDYKNPGYYDIQAKDLGIWHVPNKSPMQHWRNSALLRYRTNTGFLQRLGHNLFGIYQKYPVKYRSGKCWNDNGPAIPVVYDFGDAKKTASYYSPYGQREFVAGFVQFRVFNNERAANALCAGIKVTGCNTEHHCIGGGGFFPQGKPRQCGDFSAFDWDGYGTHVKSSCSREITEAAVLLFYR

Experiments:
[1] = Mouse intelectin-1 SPR on immobilized carbohydrates; format: binding; conditions: referenced to biotin channel
From the text: FIG. 23. Mouse intelectin-1 binding to immobilized carbohydrates. Purified Strep-mIntL-1 binding to immobilized carbohydrates monitored using SPR. […] Data are referenced to the biotin channel.

[2] = test system: infant male fecal microbiome; test: Flow cytometry binding to infant fecal microbiome; set-up: species or system human; conditions: fecal sample, 15 μg/mL intelectin + 10 mM CaCl2
Procedure: Human fecal samples provide a non-invasive proxy of the intestinal microbiome of a patient. The inventors have isolated the intestinal microbiome from human fecal samples and analyzed it for hIntL-1 binding. The isolated microbiome was fixed using an aqueous solution of 1% formaldehyde. Cells were stained as described elsewhere, using either a solution including calcium ions (100 mM) or one containing the calcium ion chelator EDTA. Microbes were exposed to 20 mM HEPES (pH 7.2), 150 mM NaCl, 10 mM CaCl2, 15 μg/mL Strep-tagged-hIntL-1, 0.1% bovine serum albumin (BSA), 0.05% tween-20, 2 μg/mL StrepMAB Classic conjugated to Oyster 645 (IBA Lifesciences, cat. no.: 2-1555-050). […] Cells are analyzed consecutively on a BD LSRII flow cytometer using identical instrument setting. […]
Humans have two intelectins: hIntL-1 and human intelectin-2 (hIntL-2). […] To compare hIntL-1 and hIntL02, the inventors isolated the intestinal mirobiome from human feces and analyzed it for hIntL-2 binding. […] The samples were processed and analyzed as described above. Cells were analyzed consecutively on a BD LSRII flow cytometer using identical instrument setting. […]

Molecule | carbohydrate binding on addition of EDTA [1] | fraction of cells of the infant microbiome bound by the intelectin [2]
B1 | prevents carbohydrate binding | –
B2 | – | ~32% and 32.2%
